In the DeepSol protein solubility set:

test: soluble on expression in E. coli; label from the status in PepcDB or PDB records

Sequence | soluble on expression in E. coli
MSLNAKTVTELRSALLYMRAEDYHLWVNMGLALRELGETGRGLWMEWSATSEKFDSKDAAKKWNSFKPTGTSYQAVFAEAARHGWVNPGRSDAQLTGRRVQTQLKTSHKIKLEFAMSSDTETAKVSYLVDPFLPCKCVVGFFGRGGTAKSSFLATMAAMISQRASTLWVSAEELTDWIKARHIKTGGAPGTLQVFRGIETDEHSGQHIQVFGVYEHLDAALTMSNVAARDAGMPAVRLVVLDTAVALTIWPSGQGPNDDASVKRLLAYMQALAEKHDVTIAFIGHNNKRSSQNTEHFEDMVAGAGAWVTSPRVAFVHARDRREENSYVMRLAKPQLTPRFLVTYKTEPVHTLAQREDAPASVLCRVALGDEYIWGEDESASVFDAATGKDTEEDSGHVLEQRATTVQQVIDALVQMVHMTNAGQDVTRDMVHSALHRIVNGRRWKDVDDRLYMAQFQYRIAIVRGPNNQVLYRKMGPAEGHHHHHH | soluble
MKRIILSIVWGLLTGWAAVPCLWAQSRTGTADREIWVKTLVRLADPVLSNLANETLKKEMPYESLAPNRQRFSYLEAVGRTVCGIAPWLELGEDDTPEGQLRKKYIELTVKGISNAVNPSSPDYLIFGEPSQPLVDAAFLAEGLLRAPKQLWGNLSPAARKQVVTELKRSRVIKPNESNWLLFASIVEAALQEFTGECDTTRLNYGVRKFRDLWYKGDAQYGDGAEFHLDYYNSFVIHPMLTDVLVVMQKHRMPESEFLNVQQKRLGRYAEQLERFISPEGTYPVIGRSIVYRTGVFHALGQAALLHLLPQQIVPAQVRCGMTKVIENQFRSAANFDTKGWLKIGFSGNQVQMSESYINTGSTYLCLTGFLPLGLPADDPFWSAPPAEWTNLKAWSGKEMPADHSLLEHHHHHH | not soluble
MAEQLSPGKAVDQVCTFLFKKPGRKGAAGRRKRPACDPEPGESGSSSDEGCTVVRPEKKRVTHNPMIQKTRDSGKQKAAYGDLSSEEEEENEPESLGVVYKSTRSAKPVGPEDMGATAVYELDTEKERDAQAIFERSQKIQEELRGKEDDKIYRGINNYQKYMKPKDTSMGNASSGMVRKGPIRAPEHLRATVRWDYQPDICKDYKETGFCGFGDSCKFLHDRSDYKHGWQIERELDEGRYGVYEDENYEVGSDDEEIPFKCFICRQSFQNPVVTKCRHYFCESCALQHFRTTPRCYVCDQQTNGVFNPAKELIAKLEKHRATGEGGASDLPEDPDEDAIPIT | soluble
ARKRFAGLEPVEMRMEVKAGDHGNTIINDVYSNDVYSLTLALDFQRRRTAETCLKKVLILSDILQSGMPPEELYRHVAGQLQVYALDFFVGIGEEIASHRTCFAGMSAVFFKDVATFLTSGEIERFSNSCILLKGARKYRFEQITERLVQQVH | not soluble
MTDFTTDIAQALVRKEDLKEVFRTHLENAVNTLLATELTAFLDYEKYDRGGFGSGNSRNGTYPRTLHTEFGDLHLSIPRDRNGEFHQQTISPYKRSNDTLESFVIHMYQKGVTTGEITDLLERMYGHHYTPQTISNMTKTMEKQVEAFKARTLAKRYVCVYLDATFIAIKRDTVSKEAVYLAIGIQEDGTKEVLAYTIAPTESALVWKEVLEDLQNRGVEDVLLFVSDGLKGIVDSIQSLFPSSSYQLCCVHLSRNLAHKVRVSDRAEVCGDFKRVYRATSKQEGQKALDDFVTKWKKVYPRATKSLEENPFILTFYDFPQAIWRSIYSTNLIESFNKQLKKYSKRKEQFPNEPSIERFLVSQFEPYNQKFSTRCHLGFDLARAELVSMFERRK | soluble
MDILSDIANAVLPQDVVSKVESKRAVAVLRGTAVFGTVWLTQKAEGEETEFEGEIKGLSPGLHGFHIHQYGDSTDGCTSAGPHFNPCKMNHGGRDSVVRHVGDLGNVEAGADGVAKIKFSDKVVSLFGANTVIGRSMVVHVDRDDLGQGIDDKAEESLKTGNAGARAACGVIALAAPA | not soluble
MRDVDLTAAPAKKAKLDTGERIAVSGRVASVKLTNFMCHANLQIDFKTAQNNCFYIGGPNGSGKSALFAAINLGLGGRGSDNDRGNTVKSYIKDGTTQSKITITLTNAGLNAHPDFDDLISIERTINQASSTYIMKSVKVTSSDNHVERIVSRKKADVDRIVSRFSIHLSNPAFWMSQDRSRSFLANFKPANVYKLYLESTNLENIRLSYIRFADALDECFALIQLKAGEILNEQKKLKRMQEQRDLQAKLDQDRALVASFCWKLLFCKVRDYNDQIELTLKKQEAQKTLQDETKKEYAKNRAARTEVEKKIQEFRDEVEVQDAEIAEAREDLDAKKRKVLEFEEKIRECEQSIRKKTSEKKYMERTIVNAKNEVRILLEKQGNQDLTKRLTKVENDYKDISQQRENMELGGESAKLREKLDTVITDYKRKEEEKYTIQRDINQLRRKIEQDMETMRRSRATKKDAINKFGSHMAEILMEINRSKSRFQTVPKGPLGKYITLIDPKWAFTVEECIGNLANNFLCSSHLDAEILRNIFQSLRIPAQDRPTIIVAKCNGRAYTNLHEPSSDFKSIYRVLKFSDPDVHNVIIDKSNCEQFILIEDKTEAMELMGSNYPPQNAVKAYTLDGSQAYANGPNSQYRFYSGRGGHARGTFGNDQGDVDEGALARLIEDTKSEAMRLETQDLRKQDHELKVIYNERDQTKAAIDEFDRKLSNLRSQELQKERQAKDLRAELAQTANEDQVENLNESIEEMQKKIPLIEDEVKDILKNVADITADMAPVIQERKEAEHTLAEIQKETRDFASKSQKLQNELSKYDDAGEILKIRLDKVKADEGVFFHTEAKLKSERDDAMEMVENDKKNHPMPPGETDPPDLSSFPSTTEAQRKIEEMQKAVDRATVGCDTTITLECVKDFKDKLKRLKYLCRMIEDVLIELKNLHAARVKAYPSLKKFTELKVCNKFQELLAVRGHFIGGLEFDHEKETLNVNVQSSKEKDAMAGRRPEVLEVEEVDEHSYDDDSDDSTGPRRKKSKKSGQKKKRVRDLKGLSGGERSFVTAALVMSLWEVMEQPFRMMDEFDVFMDMMNRKLVMDLLVELATKKFPHNQFIFFTPQGIKELNMVDGLQVFEMNRVRD | not soluble
INVIISTIISTKRADDFIIAMCNLIQRLTIDSLHIVGDIYDRGPGAHIIMDTLCNYHNFDIQWGNHDILWMGAASGNDSCIANVIRMSMRYGNLGTLEDGYGINLLPLATFAMDTYADDPCTIFMPKMNFADTNYNEKTLRLITQMHKAITIIQFKLEAEIIDRRPEFGMSNRKLLEKIDFERGVFVYEGKEYALRDTNFPTVDPADPYRLTDEERELVEKIHYSFMNSEKLKKHMRCLFTYGGMYLVSNSNLLYHASVPLNEDGSFKHVKIRGKEYWGRKLLDKADQLIRTAYFDEEGEDDKEFAMDYIWYMWCGPEAPLFDKDKMATFERYFLEDKEIQKEKKGYYYTLRNREDICDQILDEFGALGPHSHIINGHVPVKTIQGEQPMKANGKLFVIDGGFSKAYQPETGIAGYTLVYHSHGMQL | not soluble
SLMHHALHIKNGIVIDPKNGVKAEKMDIFVKNGKIVEESEVKGEDVKVIDANNKLVVAGGVDMHAHIAGSKINTGRTMRPEEMRVVRNIAGKFRAAVGRVLLTSPAIGYEYAKMGYTISIEAAQPPIGSPHTHEELDAIPMIDKAALPVFGNWHFVLKYVAEKDMEKLKAFIAWAIERTKGFGVKVVNPGGVGAWMYGGNVTSLDDQVPGFNVTPREIITSLVKATEELQLNHSVHLHCNRLGVPGNYETTVESIKLVDGIRNDARQVLHVTHVQFNAYAGDSWRTVASGAEAIAKTVNSMDNVTIDMGQPIFGHATAMTGDAPFQFTLHKLTGSRWSNKDSEIEGGAGIVPIAYLPKNPVHALQWAIGLELGLLIDSDKVVLTTDYPNGGPFTEYPYIMAMLMSKKMREGELERVSPFVQKASNLPAIDTEKTLEEVIHMTRSLPARVLGLPQKGHLGVGADADIAIYDLNPLDVDTSNDFEKVYKAFKTAVYTIKDGQILVKDGELVDEYWGRTYWVDATGKADMEAIKDDLNEMFSKYYTVELQNYGVEERWLRKPERIVI | not soluble
MGSDKIHHHHHHARPQEKIKKKEISQSYSVSAGDRLQVENRYGNITVTHWNQNTVAIRVEVECKARSEERAQENLDRIQIETKKIGGIVSAVTTIKKEMNSNSNNESMTINYYIQMPPKLAADLNQKYGNINLPSDNNGNMDIHVKYGNLNAGNFTANAMIEAKYGNIEVGNLQDAQLDLGYVGTAKIRNAKDLTIDSKYSNLDIQDIQSLRMEIKYGNLTIESVSRLDMEIKYSDAKIGTLKDALNVSSLSYSNLKIRNLSPSFSKVNVESHYGNLEVALPAKTSFRIVAENMKYSSCDVNGFNITRKHFDDEDRDKNYTYEINGGKQPTIHFEGNRYGNLKVKAN | not soluble
MSFNPTRDDFEALLNDSMGGRDFAEGTVVKGKVVGIEKDFAIIDVGLKTEGRVQLKEFGVDENGKATVKAGDTVEVFLERLENAMGEAVISREKAKREEAWTRLEGVYARNEPVMGAIVGRVKGGFTVDLGGASAFLPGSQVDIRPVRDVGPLMGKEQPFAILKMDRPRGNIVVSRRAILEEARAEQRTELVSQLQEGEIREGVVKNITDYGAFVDLGGIDGLLHVTDMSWKRVNHPSQVLAVGDTVKVQIVKINPDTQRISLGMKQLQSDPWDGVEAKYPVGAKFTGRITNITDYGAFVELEAGVEGLVHVSEMSWTKKNVHPGKIVSTSQEVDVVVLDVDPSKRRVSLGLKQALANPWEAFLEAHPVGSTVEGEVKNATEFGLFVGLDNDIDGMVHLSDIDWSVPGEEAMARYKKGDMVKAKVLDVDVEKERISLGIKQLAGDPMSGDTYRKNQTVTVTVTEVTSGGIEVRFGEDDAPMTAFIRKSDLSRDRQEQRPERFAVGDRVDAQITNVDKAARRVSLSIKSLEMAEEKEAIEQFGSSDSGASLGDILGAALRERASKD | soluble
MAHHHHHHMAEAKVVKDLAEVCASGAETYSAWTTAKALVQRRYLSAKAQGTFEDCGKLLASLTRVLQTYLRIDLAQELLSDVLFQVMEHFSAKQAAGATAAVVKDGGAPQSSFDLAAANFLQHMFDTLLSATTRTYTLMGPMPLVVEWNRDADSGGVEAAVAQSKHAAPWAEAVVLEFAVRAADFLSQRPQSADVLSHWAQNLFVSYEQLLALRLALPSSPPSTPQDGKAASAAAPSPSVPVPTLASQLLRMSTFNRASRTGKESSDSTSAATTPLTAAVYWLTHFAREPNAVNHLFAQYVYFDILGRGQQRSSTANTTPGNSGAPAKMLRERVNAALEERCTLTRREAISMARAAVEAYWQAFPLVLQQTSSVSSPQPSSCAGESSKEDANVDPQDVHLYRWTWFLDSLTLTFAYSGSASASIDEDAAVQQRERQKHVCAQLLELYADVTAELPGLKWQELVAAYIGA | soluble
MAQHVKKPEWLKIRLGGNEKFTETKSIVEGHCLHTICTSGKCPNMGECWSRGTATFMIGGDICTRACRFCNTLTGRPKPLNEAEPTHVALSIKLMGLNHAVVTSVDRDDLPDYGAAHWVKTIQEIRRINSGVTLEVLIPDFKGRMDLVDMIIEASPDVISHNLETVRRLTPSVRSVATYDTSLAVLRHIAQSGKMPAKTGMMLGLGETEEEILELMDDALAAGVSVITIGQYLQPSRKNLPVVEYITPEQFEHLRLVGIEKGFRTIESAPLVRSSYHAERHL | not soluble
MGSDKIHHHHHHTEETAKVVPMAVITPAINQLTDQEKAEGWALLFDGKTTKGWRGAHKDAFPDHGWMVKDGELIVQKSDGSESTNGGDIVTEGEYSAFEFSVDFKITEGANSGIKYFVTEQEKQKGSAYGLEFQLLDDAKHPDAKLYTTFPGSRTLGSLYDLKKSENIHFNGVGEWNTAVVKVFPNNHVEHWLNGVKVLEYERGSKEFRDLVKGSKYADPSYNAGGAFGEAPKGHILLQDHGDEVAFRNIKVKELK | not soluble
MQAGARLARQDNAMADAPAPAPKRARAGRPPTLAAPRERILEEAARLFARSGYENSSVADLAAAIGVSKAALYHYFPTKQDIYDAIILETLAGLLQAVTREVERQREACERLRAFMVGHARYFARHHEQFVTMLIGYSGMALPERADAAQLRDRYEQLLRDLLEQGMATGTLRRLDVAATGRAVLSMLNWMVRWYKPGQGDSAEQIADGYYDLLFNGLRI | soluble
